Measured values as given in paper PMC3900260.
Like-named read-outs stand apart in the source and are kept apart here.

apurinic/apyrimidinic endonuclease 1 (APE1): K6R/K7R
no change: enzymatic_activity (acetylation at K6) | expression_or_secretion (acetylation at K6) | enzymatic_activity (acetylation at K7) | expression_or_secretion (acetylation at K7)
